Assays:
[1] = tested on: SARS-COV-2 immune complex-induced inflammasome activation; test: SARS-COV-2 immune complex-induced inflammasome activation in human monocytes; type: cell-based; settings: 50 μM MCC950, 18 h
[2] = rheumatoid arthritis; cited from earlier work
NLRP3 inflammasome [3] = target: T1, NLRP3 inflammasome (Homo sapiens, UniProt Q9ULZ3); test: ASC speck and filament formation in HEK293T cells reconstituted with human NLRP3-mCitrine and human ASC-mPlum (ImageStream, confocal); type: cell-based; parameters: expressed in transfected cells; host or cells: HEK293T; settings: HEK293T; for ASC2 filament formation / distribution: ImageStream and confocal
Procedure: (§1) Inflammasome activation assays.
ImageStream imaging flow cytometry. […] Nuclei were stained with DAPI.
Confocal imaging. […] At 48 h post-transfection, cells were fixed with 10% formalin for 15 min at room temperature. DAPI (1:2000 dilution) was used for nuclear staining. All samples were then mounted and examined using the Leica TCS SP8 confocal microscope.

human ASC = target: T2, human ASC (Homo sapiens, UniProt Q9ULZ3); test: Co-immunoprecipitation of ASC2-His with human ASC-Flag from HEK293T cells; type: binding; settings: 0.25 μg bat or hupa4 ASC2 vs 3 μg human ASC2 transfected, FIG. 26A
T2 construct: expressed in transfected cells; host or cells: HEK293T
Procedure: (§2) Co-immunoprecipitation. HEK293T cells were transfected in 6-well plate with plasmids encoding His-tagged empty vector (His alone), bat ASC2, human ASC2, and Hupa4 ASC2 along with Flag-tagged human or bat ASC. 3 μg human ASC2, in contrast to 0.25 μg control, bat or hupa4 ASC2, were transfected to normalize the expression. At 48 h post-transfection, cells were lysed in IP lysis buffer (Pierce) according to manufacturer's protocol and centrifuged at 500 g for 10 minutes at 4° C. The supernatants were subjected to immunoprecipitation by incubation for 16 hours at 4° C. with anti-Flag (Sigma) incubated magnetic beads, followed by washing three times with TBS containing 0.05% Tween 20 and once with purified water. Bound proteins were separated by 15% SDS-PAGE, followed by immunoblotting analysis with the indicated antibodies.

bat ASC = test: Co-immunoprecipitation of ASC2-His with bat ASC-Flag from HEK293T cells; type: binding; settings: 0.25 μg bat or hupa4 ASC2 vs 3 μg human ASC2 transfected, FIG. 26B
Procedure: as §2

NLRP3 inflammasome [4] = target: T3, NLRP3 inflammasome (Mus musculus, UniProt Q9EPB4); test: Inflammasome activation in LPS-primed mouse immortalized macrophages (iMACs) stably expressing ASC2, stimulated with nigericin; type: cell-based; parameters: endogenous in cells; host or cells: BMDMs of C57BL/6 wild-type and bat ASC2/rtTA mice; settings: iMACs stably expressing equal ASC2-LSSmOrange, LPS 3 h, FIG. 11J, 11K
T3 sequence (Q9EPB4 1-193): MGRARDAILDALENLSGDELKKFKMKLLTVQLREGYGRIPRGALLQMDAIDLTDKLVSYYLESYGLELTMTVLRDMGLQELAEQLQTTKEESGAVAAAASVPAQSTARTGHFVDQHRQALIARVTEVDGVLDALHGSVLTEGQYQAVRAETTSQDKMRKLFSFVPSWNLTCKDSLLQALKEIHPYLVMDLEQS
Text: (§3) Generation of THP-1 and IMACs stable cells. […] Single cell clones were generated for THP-1 cells stably expressing ASC2-LSSmOrange.
as §1

NLRP3 inflammasome [5] = target: T1, NLRP3 inflammasome; test: Inflammasome activation in LPS-primed THP-1 macrophages stably expressing ASC2, stimulated with nigericin; type: cell-based; parameters: endogenous in cells; host or cells: THP-1 macrophages (PMA-differentiated, LPS-primed); settings: THP-1 macrophages stably expressing equal ASC2-mCitrine, LPS 3 h, nigericin 2 h; FIG. 11L, 11M
Text: as §3, §1
ImageStream imaging flow cytometry.

T1 sequence (Q9ULZ3 whole entry): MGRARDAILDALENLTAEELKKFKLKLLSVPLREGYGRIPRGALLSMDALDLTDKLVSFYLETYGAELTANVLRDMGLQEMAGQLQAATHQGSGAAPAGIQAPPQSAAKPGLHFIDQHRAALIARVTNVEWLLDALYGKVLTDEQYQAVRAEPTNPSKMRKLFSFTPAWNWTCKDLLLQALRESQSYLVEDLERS
T2 sequence (Q9ULZ3 whole entry): as above

Molecule | Cell death (LDH release) ([1]; 100 ng/ml Pam3CSK4, immune complexes, FIG. 10M) | IL-1β secretion ([1]; Pam3CSK4 priming, immune complexes, FIG. 10I) | Reason for discontinuation after phase II clinical trials [2] | ASC2 filament formation / distribution (NLRP3 inflammasome [3]) | Co-localization with human ASC (NLRP3 inflammasome [3]; imaging, FIG. 3A) | Interaction with human ASC (co-IP) (human ASC) | Interaction with bat ASC (co-IP) (bat ASC) | ASC speck formation (human NLRP3 inflammasome activation) (NLRP3 inflammasome [3]; human NLRP3-mCitrine, human ASC-mPlum, 50 ng ASC2-LSSmOrange, 48 h post-transfection) | Inflammasome inhibition (LDH release and IL-1β secretion) (NLRP3 inflammasome [4]) | Inflammasome inhibition (LDH release and IL-1β secretion) (NLRP3 inflammasome [5])
CC(C)(O)c1coc(S(=O)(=O)NC(=O)Nc2c3c(cc4c2CCC4)CCC3)c1 [MCC950] | abolished | abolished | liver toxicity | – | – | – | – | – | – | –
human ASC2: wildtype human ASC2, 89 amino acids, SEQ ID NO:7 (protein) MGTKREAILKVLENLTPEELKKFKMKLGTVPLREGFERIPRGALGQLDIVDLTDKLVASYYEDYAAELVVAVLRDMRMLEEAARLQRAA | – | – | – | diffusely distributed | not between human ASC2 and human ASC | – | – | – | – | –
hupa4 ASC2: human ASC2 with 4 key sites substituted simultaneously with the ones in bat ASC2, SEQ ID NO:6 (protein) MGTKREAILEVLENLTPEELKKFKMKLGTVPLREGFRRIPRGALGQLDIVDLTDKLVASYCEDYAAELVVAVLRDMGMLEEAARLQRAA | – | – | – | form filaments | – | interact strongly with human ASC | interact with bat ASC more strongly than human ASC2 | gained the ability to inhibit NLRP3 inflammasome | gain-of-function | gain-of-function
